Source: patent publication US20180155451A1 (published 2018)

T1: FcγRIIa R (extracellular domain, C-terminal His tag) (human, UniProt P12318 34-217)
T1 construct: extracellular domain; also called FcgRIIa R type; 2aR; not shown: His tag attached to the C terminus
T1 sequence (looked up): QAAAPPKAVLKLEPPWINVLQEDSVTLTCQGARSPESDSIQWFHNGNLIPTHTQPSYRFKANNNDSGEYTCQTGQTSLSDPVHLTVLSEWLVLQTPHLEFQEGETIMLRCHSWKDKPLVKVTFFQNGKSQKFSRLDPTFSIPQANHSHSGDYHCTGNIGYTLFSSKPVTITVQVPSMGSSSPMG

T2: FcγRIIb (extracellular domain, C-terminal His tag) (human, UniProt P31994 43-217)
T2 construct: extracellular domain; also called FcgRIIb; 2b; not shown: His tag attached to the C terminus
T2 sequence (looked up): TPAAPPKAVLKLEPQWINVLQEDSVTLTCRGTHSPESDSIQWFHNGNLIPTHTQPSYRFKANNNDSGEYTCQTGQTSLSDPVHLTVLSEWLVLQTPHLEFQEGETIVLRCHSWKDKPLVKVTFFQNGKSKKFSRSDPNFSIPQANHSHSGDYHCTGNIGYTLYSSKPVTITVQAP


Assays:
[1] = target: T1, FcγRIIa R (extracellular domain, …); assay: ratio of He/Con_2aR to He/Con_2b (FcγRIIb); SPR relative binding
Experimental: (§1) The heterodimerized antibodies He Abs in which one of the H chains was introduced with an alteration were assayed for their binding activities to each activating FcγR and inhibitory FcγR according to the method described in Example 4. […] The activating FcγRs in FIGS. 26, 27, 28, and 29 are FcγRIa, FcγRIIa (R), FcγRIIa (H), and FcγRIIIa, respectively.
(§2) Analysis of interaction between objective antibody and the FcγR was carried out using Biacore T100 (GE Healthcare). HBS-EP+ (GE Healthcare) was used as the running buffer, and the measurement temperature was set to 25° C. Chips produced by immobilizing the antigen peptide by the amine coupling method to a Series S Sencor Chip CM5 (GE Healthcare), or alternatively, chips produced by allowing preliminarily biotinylated antigen peptides to interact with and immobilize onto a Series S Sensor Chip SA (certified) (GE Healthcare) were used. Antibodies of interest were captured onto an antigen peptide-immobilized chip, and allowed to interact to each FcγR diluted with running buffer. To regenerate and repeatedly use the chip, the antibodies captured on the chip were washed off by reacting 10 mM glycine-HCl, pH 1.5.

[2] = target: T1, FcγRIIa R (extracellular domain, …); assay: SPR (Biacore), antibody captured on antigen-peptide chip, FcγR as analyte; relative binding amount
Experimental: as §1, §2

[3] = target: T2, FcγRIIb (extracellular domain, …); assay: as above
Experimental: as §1, §2

| Binder | He_2aR/2b (IIaR/IIb) [1] | He/Con_2aR [2] | He/Con_2b [3] |
| --- | --- | --- | --- |
| GpH7-A5/GpH7-B3 variant D265_01G/GpL16-k0 (antibody, human IgG1, kappa, Heterodimerized anti-glypican-3 IgG1; alteration in only one H chain (GpH7-B3 side); also called He Ab) heavy 1: not shown heavy 2: not shown light: DIVMTQSPLSLPVTPGEPASISCQASESLVHSNRNTYLHWYLQKPGQSPQLLIYKVSNRFSGVPDRFSGSGSGTDFTLKISRVEAEDVGVYYCSQNTHVPPTFGQGTKVEIERTVAAPSVFIFPPSDEQLKSGTASVVCLLNNFYPREAKVQWKVDNALQSGNSQESVTEQDSKDSTYSLSSTLTLSKADYEKHKVYACEVTHQGLSSPVTKSFNRGEC | 1.49 | 24.1 % of control (GpH7-A5/GpH7-B3/GpL16-k0 = 100) | 16.1 % of control (GpH7-A5/GpH7-B3/GpL16-k0 = 100) |
| GpH7-A5/GpH7-B3 variant D265_06M/GpL16-k0 (antibody, human IgG1, kappa, Heterodimerized anti-glypican-3 IgG1; alteration in only one H chain (GpH7-B3 side); also called He Ab) heavy 1: not shown heavy 2: not shown light: DIVMTQSPLSLPVTPGEPASISCQASESLVHSNRNTYLHWYLQKPGQSPQLLIYKVSNRFSGVPDRFSGSGSGTDFTLKISRVEAEDVGVYYCSQNTHVPPTFGQGTKVEIERTVAAPSVFIFPPSDEQLKSGTASVVCLLNNFYPREAKVQWKVDNALQSGNSQESVTEQDSKDSTYSLSSTLTLSKADYEKHKVYACEVTHQGLSSPVTKSFNRGEC | 1.58 | 15.8 % of control (GpH7-A5/GpH7-B3/GpL16-k0 = 100) | 10 % of control (GpH7-A5/GpH7-B3/GpL16-k0 = 100) |
| GpH7-A5/GpH7-B3 variant S239_15Y/GpL16-k0 (antibody, human IgG1, kappa, Heterodimerized anti-glypican-3 IgG1; alteration in only one H chain (GpH7-B3 side); also called He Ab) heavy 1: not shown heavy 2: not shown light: DIVMTQSPLSLPVTPGEPASISCQASESLVHSNRNTYLHWYLQKPGQSPQLLIYKVSNRFSGVPDRFSGSGSGTDFTLKISRVEAEDVGVYYCSQNTHVPPTFGQGTKVEIERTVAAPSVFIFPPSDEQLKSGTASVVCLLNNFYPREAKVQWKVDNALQSGNSQESVTEQDSKDSTYSLSSTLTLSKADYEKHKVYACEVTHQGLSSPVTKSFNRGEC | 1.21 | 42.2 % of control (GpH7-A5/GpH7-B3/GpL16-k0 = 100) | 34.9 % of control (GpH7-A5/GpH7-B3/GpL16-k0 = 100) |
| GpH7-A5/GpH7-B3 variant D265_08L/GpL16-k0 (antibody, human IgG1, kappa, Heterodimerized anti-glypican-3 IgG1; alteration in only one H chain (GpH7-B3 side); also called He Ab) heavy 1: not shown heavy 2: not shown light: DIVMTQSPLSLPVTPGEPASISCQASESLVHSNRNTYLHWYLQKPGQSPQLLIYKVSNRFSGVPDRFSGSGSGTDFTLKISRVEAEDVGVYYCSQNTHVPPTFGQGTKVEIERTVAAPSVFIFPPSDEQLKSGTASVVCLLNNFYPREAKVQWKVDNALQSGNSQESVTEQDSKDSTYSLSSTLTLSKADYEKHKVYACEVTHQGLSSPVTKSFNRGEC | 1.46 | 6.6 % of control (GpH7-A5/GpH7-B3/GpL16-k0 = 100) | 4.6 % of control (GpH7-A5/GpH7-B3/GpL16-k0 = 100) |
| GpH7-A5/GpH7-B3 variant P238_13S/GpL16-k0 (antibody, human IgG1, kappa, Heterodimerized anti-glypican-3 IgG1; alteration in only one H chain (GpH7-B3 side); also called He Ab) heavy 1: not shown heavy 2: not shown light: DIVMTQSPLSLPVTPGEPASISCQASESLVHSNRNTYLHWYLQKPGQSPQLLIYKVSNRFSGVPDRFSGSGSGTDFTLKISRVEAEDVGVYYCSQNTHVPPTFGQGTKVEIERTVAAPSVFIFPPSDEQLKSGTASVVCLLNNFYPREAKVQWKVDNALQSGNSQESVTEQDSKDSTYSLSSTLTLSKADYEKHKVYACEVTHQGLSSPVTKSFNRGEC | 1.26 | 88.9 % of control (GpH7-A5/GpH7-B3/GpL16-k0 = 100) | 70.4 % of control (GpH7-A5/GpH7-B3/GpL16-k0 = 100) |

Further lines, results first:

| He_2aR/2b (IIaR/IIb) [1] | He/Con_2aR [2] | He/Con_2b [3] | Binder |
| --- | --- | --- | --- |
| 1.26 | 91.9 % of control (GpH7-A5/GpH7-B3/GpL16-k0 = 100) | 73.2 % of control (GpH7-A5/GpH7-B3/GpL16-k0 = 100) | GpH7-A5/GpH7-B3 variant P238_18N/GpL16-k0 (antibody, human IgG1, kappa, Heterodimerized anti-glypican-3 IgG1; alteration in only one H chain (GpH7-B3 side); also called He Ab) heavy 1: not shown heavy 2: not shown light: DIVMTQSPLSLPVTPGEPASISCQASESLVHSNRNTYLHWYLQKPGQSPQLLIYKVSNRFSGVPDRFSGSGSGTDFTLKISRVEAEDVGVYYCSQNTHVPPTFGQGTKVEIERTVAAPSVFIFPPSDEQLKSGTASVVCLLNNFYPREAKVQWKVDNALQSGNSQESVTEQDSKDSTYSLSSTLTLSKADYEKHKVYACEVTHQGLSSPVTKSFNRGEC |
| 1.71 | 33.9 % of control (GpH7-A5/GpH7-B3/GpL16-k0 = 100) | 19.9 % of control (GpH7-A5/GpH7-B3/GpL16-k0 = 100) | GpH7-A5/GpH7-B3 variant D265_02A/GpL16-k0 (antibody, human IgG1, kappa, Heterodimerized anti-glypican-3 IgG1; alteration in only one H chain (GpH7-B3 side); also called He Ab) heavy 1: not shown heavy 2: not shown light: DIVMTQSPLSLPVTPGEPASISCQASESLVHSNRNTYLHWYLQKPGQSPQLLIYKVSNRFSGVPDRFSGSGSGTDFTLKISRVEAEDVGVYYCSQNTHVPPTFGQGTKVEIERTVAAPSVFIFPPSDEQLKSGTASVVCLLNNFYPREAKVQWKVDNALQSGNSQESVTEQDSKDSTYSLSSTLTLSKADYEKHKVYACEVTHQGLSSPVTKSFNRGEC |
| 1.96 | 48.5 % of control (GpH7-A5/GpH7-B3/GpL16-k0 = 100) | 24.7 % of control (GpH7-A5/GpH7-B3/GpL16-k0 = 100) | GpH7-A5/GpH7-B3 variant S239_11K/GpL16-k0 (antibody, human IgG1, kappa, Heterodimerized anti-glypican-3 IgG1; alteration in only one H chain (GpH7-B3 side); also called He Ab) heavy 1: not shown heavy 2: not shown light: DIVMTQSPLSLPVTPGEPASISCQASESLVHSNRNTYLHWYLQKPGQSPQLLIYKVSNRFSGVPDRFSGSGSGTDFTLKISRVEAEDVGVYYCSQNTHVPPTFGQGTKVEIERTVAAPSVFIFPPSDEQLKSGTASVVCLLNNFYPREAKVQWKVDNALQSGNSQESVTEQDSKDSTYSLSSTLTLSKADYEKHKVYACEVTHQGLSSPVTKSFNRGEC |
